Results as given in patent US9176064B2, “Bisubstrate fluorescent probes for protein kinase CK2” (University of Tartu, priority 2012, dated 2015).
Where a SMILES comes first, the peptide text is derived from it. [ ]: non-standard residue; d: D form. The star is where a group is joined. X1 = O=C(CCCCCCCn1cnc2c(Br)c(Br)c(Br)c(Br)c21)*

Legend:
Assay in all cases: Kinase panel residual activity
Type in all cases: biochemical
Settings in all cases: compound at 1 micromolar
IKKb = target: T1, IKKb (Homo sapiens, UniProt O14920)
T1 sequence (O14920 1-756): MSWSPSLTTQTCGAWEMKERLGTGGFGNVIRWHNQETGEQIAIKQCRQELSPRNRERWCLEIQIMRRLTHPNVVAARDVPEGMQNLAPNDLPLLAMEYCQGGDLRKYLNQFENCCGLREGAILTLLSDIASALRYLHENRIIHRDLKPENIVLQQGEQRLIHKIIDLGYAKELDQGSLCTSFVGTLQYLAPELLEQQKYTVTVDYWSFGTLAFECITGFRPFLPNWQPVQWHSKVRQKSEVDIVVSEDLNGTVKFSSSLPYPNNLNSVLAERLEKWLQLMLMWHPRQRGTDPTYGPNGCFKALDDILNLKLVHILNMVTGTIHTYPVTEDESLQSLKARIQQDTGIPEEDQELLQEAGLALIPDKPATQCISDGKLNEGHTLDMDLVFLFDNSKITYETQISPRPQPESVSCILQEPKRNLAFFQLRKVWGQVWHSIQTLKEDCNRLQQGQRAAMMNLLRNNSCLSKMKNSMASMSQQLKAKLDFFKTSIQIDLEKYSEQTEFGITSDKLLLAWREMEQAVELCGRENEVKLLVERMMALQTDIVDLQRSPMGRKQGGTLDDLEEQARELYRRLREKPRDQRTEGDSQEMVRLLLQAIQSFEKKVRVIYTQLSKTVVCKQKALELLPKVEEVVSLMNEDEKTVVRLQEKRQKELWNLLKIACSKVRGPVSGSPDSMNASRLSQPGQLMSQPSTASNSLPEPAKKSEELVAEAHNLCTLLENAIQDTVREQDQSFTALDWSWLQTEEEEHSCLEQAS

TTK = target: T2, TTK (Homo sapiens, UniProt P33981)
T2 sequence (P33981 1-857): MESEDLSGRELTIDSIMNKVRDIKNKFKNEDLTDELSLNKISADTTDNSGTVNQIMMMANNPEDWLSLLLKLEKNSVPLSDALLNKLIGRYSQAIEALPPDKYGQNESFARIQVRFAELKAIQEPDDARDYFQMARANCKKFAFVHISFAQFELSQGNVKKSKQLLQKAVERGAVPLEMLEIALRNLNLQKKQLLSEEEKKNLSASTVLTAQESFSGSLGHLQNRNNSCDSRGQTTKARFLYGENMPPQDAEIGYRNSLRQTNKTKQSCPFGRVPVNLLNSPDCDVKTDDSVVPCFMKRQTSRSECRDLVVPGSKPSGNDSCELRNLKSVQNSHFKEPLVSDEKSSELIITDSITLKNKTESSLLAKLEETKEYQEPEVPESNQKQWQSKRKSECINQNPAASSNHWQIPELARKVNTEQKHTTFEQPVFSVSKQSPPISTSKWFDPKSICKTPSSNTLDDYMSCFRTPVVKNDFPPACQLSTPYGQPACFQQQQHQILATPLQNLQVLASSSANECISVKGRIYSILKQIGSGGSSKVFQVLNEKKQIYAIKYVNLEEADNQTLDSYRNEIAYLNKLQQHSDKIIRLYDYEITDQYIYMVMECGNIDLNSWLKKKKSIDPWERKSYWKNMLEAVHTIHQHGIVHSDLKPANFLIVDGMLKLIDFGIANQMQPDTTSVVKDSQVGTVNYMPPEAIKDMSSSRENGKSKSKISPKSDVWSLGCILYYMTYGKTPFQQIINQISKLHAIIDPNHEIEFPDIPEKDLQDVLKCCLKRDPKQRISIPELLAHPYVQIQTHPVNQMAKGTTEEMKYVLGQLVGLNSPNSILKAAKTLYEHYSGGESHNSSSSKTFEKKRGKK

MKK2 = MKK2 (Homo sapiens, UniProt P36507)
MKK2, sequence (P36507 whole entry, species assumed): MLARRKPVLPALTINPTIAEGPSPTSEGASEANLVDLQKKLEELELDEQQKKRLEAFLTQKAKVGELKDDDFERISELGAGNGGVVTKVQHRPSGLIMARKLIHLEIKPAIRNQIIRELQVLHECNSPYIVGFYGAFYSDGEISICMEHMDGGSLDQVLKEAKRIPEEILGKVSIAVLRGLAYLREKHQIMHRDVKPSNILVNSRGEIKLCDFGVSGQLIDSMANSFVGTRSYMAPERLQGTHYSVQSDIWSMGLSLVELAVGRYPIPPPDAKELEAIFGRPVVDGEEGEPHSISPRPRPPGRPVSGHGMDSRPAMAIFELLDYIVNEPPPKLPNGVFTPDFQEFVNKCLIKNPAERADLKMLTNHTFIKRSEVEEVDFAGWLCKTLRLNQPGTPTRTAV

STK33 = STK33 (Homo sapiens, UniProt Q9BYT3)
STK33, sequence (Q9BYT3 whole entry, species assumed): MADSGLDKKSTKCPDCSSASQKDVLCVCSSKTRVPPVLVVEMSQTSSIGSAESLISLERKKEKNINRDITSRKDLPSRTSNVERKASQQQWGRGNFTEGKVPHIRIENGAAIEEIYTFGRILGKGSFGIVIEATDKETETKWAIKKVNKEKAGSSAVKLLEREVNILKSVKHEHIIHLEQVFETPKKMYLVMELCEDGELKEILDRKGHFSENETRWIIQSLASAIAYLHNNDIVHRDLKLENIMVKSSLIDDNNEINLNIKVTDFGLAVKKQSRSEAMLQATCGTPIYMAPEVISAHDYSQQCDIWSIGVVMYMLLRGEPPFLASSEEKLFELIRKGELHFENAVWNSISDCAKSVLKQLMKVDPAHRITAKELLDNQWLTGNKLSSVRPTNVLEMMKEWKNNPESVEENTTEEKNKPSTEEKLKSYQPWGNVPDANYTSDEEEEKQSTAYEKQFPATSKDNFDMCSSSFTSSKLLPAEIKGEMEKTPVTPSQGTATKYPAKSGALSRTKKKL

ZAP70 = target: T3, ZAP70 (Homo sapiens, UniProt P43403)
T3 sequence (P43403 1-619): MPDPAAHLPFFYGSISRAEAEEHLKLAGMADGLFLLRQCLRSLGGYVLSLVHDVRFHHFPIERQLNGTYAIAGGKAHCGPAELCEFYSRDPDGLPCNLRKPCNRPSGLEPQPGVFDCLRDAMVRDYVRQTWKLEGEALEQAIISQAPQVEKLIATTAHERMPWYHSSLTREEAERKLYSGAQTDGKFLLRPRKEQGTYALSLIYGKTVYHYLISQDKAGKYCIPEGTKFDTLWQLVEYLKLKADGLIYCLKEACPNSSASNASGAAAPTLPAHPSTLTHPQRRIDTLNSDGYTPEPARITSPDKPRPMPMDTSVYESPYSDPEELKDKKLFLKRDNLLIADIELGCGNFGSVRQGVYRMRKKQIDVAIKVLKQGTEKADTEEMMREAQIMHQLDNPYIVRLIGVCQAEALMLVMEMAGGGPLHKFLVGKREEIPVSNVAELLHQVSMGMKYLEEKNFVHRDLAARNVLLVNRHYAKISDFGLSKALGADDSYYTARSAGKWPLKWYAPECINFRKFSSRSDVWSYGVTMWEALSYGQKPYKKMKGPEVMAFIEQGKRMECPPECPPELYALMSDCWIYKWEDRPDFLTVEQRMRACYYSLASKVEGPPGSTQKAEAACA

DYRK3 = target: T4, DYRK3 (Homo sapiens, UniProt O43781)
T4 sequence (O43781 1-588): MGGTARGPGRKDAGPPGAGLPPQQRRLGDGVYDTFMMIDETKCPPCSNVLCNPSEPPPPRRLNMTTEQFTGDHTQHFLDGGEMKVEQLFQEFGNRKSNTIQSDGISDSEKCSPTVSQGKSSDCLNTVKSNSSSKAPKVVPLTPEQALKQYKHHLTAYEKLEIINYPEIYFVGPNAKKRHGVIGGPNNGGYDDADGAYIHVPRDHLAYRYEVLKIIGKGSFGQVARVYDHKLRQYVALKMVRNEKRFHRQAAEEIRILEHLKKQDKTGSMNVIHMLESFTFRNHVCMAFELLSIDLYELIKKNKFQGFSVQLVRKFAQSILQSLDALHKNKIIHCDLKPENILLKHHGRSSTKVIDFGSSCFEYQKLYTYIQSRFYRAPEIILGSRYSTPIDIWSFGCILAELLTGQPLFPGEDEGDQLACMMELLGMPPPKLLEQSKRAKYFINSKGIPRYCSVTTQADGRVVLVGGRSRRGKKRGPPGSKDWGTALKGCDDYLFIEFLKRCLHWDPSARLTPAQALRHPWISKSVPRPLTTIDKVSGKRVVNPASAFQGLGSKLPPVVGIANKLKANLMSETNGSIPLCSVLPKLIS

SmMLCK = SmMLCK (Homo sapiens, UniProt Q15746)
SmMLCK, sequence (Q15746 923-1914): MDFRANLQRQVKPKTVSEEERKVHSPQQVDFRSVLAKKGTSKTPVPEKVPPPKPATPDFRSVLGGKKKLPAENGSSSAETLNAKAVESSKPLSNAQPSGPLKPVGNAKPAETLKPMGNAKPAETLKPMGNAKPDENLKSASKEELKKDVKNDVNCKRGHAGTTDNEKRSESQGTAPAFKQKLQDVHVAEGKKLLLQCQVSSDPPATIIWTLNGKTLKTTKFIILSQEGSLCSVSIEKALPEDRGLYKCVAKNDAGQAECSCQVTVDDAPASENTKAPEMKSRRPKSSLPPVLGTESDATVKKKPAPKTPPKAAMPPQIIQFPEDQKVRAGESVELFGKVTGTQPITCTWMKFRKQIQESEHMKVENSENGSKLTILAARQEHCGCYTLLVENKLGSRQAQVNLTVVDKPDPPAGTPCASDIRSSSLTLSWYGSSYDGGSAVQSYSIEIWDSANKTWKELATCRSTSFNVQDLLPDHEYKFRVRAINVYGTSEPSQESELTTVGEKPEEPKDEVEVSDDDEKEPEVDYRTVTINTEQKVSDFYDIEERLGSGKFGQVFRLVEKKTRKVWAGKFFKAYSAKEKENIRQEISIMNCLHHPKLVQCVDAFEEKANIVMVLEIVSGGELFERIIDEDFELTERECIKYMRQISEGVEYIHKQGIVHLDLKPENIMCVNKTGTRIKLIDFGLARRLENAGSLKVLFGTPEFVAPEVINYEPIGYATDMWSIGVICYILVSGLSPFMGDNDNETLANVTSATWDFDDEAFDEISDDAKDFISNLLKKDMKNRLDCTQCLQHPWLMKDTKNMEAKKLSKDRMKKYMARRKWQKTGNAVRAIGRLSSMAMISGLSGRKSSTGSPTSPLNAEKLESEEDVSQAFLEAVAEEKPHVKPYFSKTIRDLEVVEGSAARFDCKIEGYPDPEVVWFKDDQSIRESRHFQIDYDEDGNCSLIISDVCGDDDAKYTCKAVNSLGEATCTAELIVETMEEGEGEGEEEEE

NCCCC[C@H](NC(=O)[C@H](CC(=O)O)NC(=O)[C@H](CC(=O)O)NC(=O)[C@H](CC(=O)O)NC(=O)[C@H](CC(=O)O)NC(=O)[C@H](CC(=O)O)NC(=O)[C@@H](CC(=O)O)NC(=O)CCCCCCCn1cnc2c(Br)c(Br)c(Br)c(Br)c21)C(=O)O [TBBI-OcA-(D-Asp)-(L-Asp)5-(L-Lys)-OH] (X1-[dD]DDDDDK-OH)
remaining activity at 1 µM (IKKb): 55% | remaining activity at 1 µM (TTK): 52% | remaining activity at 1 µM (MKK2): 66% | remaining activity at 1 µM (STK33): 96% | remaining activity at 1 µM (ZAP70): 97% | remaining activity at 1 µM (DYRK3): 30% | remaining activity at 1 µM (SmMLCK): 96%
